Measurements reported in US20190062438A1 (CSL, published 2019).
Residue numbers refer to the chain shown, from its start.

T1: human CD131 (human, UniProt P32927 17-897)
T1 sequence: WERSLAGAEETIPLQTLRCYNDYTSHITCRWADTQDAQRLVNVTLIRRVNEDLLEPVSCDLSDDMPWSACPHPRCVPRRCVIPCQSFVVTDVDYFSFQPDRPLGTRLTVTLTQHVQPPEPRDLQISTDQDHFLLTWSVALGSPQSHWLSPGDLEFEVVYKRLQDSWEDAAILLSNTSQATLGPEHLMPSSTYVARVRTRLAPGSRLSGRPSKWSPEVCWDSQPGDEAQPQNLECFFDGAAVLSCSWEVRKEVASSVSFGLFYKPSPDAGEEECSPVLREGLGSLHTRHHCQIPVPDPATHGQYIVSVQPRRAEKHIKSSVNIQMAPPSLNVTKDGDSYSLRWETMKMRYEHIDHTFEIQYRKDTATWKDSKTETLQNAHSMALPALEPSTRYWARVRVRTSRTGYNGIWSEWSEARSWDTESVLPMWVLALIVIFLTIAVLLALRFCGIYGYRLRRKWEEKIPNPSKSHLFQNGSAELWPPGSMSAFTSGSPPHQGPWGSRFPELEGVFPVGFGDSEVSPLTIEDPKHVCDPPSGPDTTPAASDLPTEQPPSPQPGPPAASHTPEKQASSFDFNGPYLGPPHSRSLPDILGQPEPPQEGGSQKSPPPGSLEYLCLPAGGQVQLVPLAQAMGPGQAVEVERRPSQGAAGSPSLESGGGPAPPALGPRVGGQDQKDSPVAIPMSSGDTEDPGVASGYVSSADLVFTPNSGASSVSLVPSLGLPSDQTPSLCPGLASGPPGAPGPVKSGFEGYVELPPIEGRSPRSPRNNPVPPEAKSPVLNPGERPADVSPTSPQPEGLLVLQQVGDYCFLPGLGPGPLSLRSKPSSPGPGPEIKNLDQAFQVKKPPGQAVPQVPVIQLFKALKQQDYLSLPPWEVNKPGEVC

B1: 9A2-VR39.102 (antibody, V domains shown)
VH: EVQLLESGGGLVQPGGSLRLSCAASGFTFQWFHYIWVRQAPGKGLEWVSSINGRGRVTYYADSVKGRFTISRDNSKNTLYLQMNSLRAEDTAVYYCARFYDSFFDIWGQGTMVTVSS
VL: DIQMTQSPSSVSASVGDRVTITCRASQGISSWLAWYQQKPGKAPKLLIYAASSLQSGVPSRFSGSGSGTDFTLTISSLQPEDFATYYCQQANSFPITFGQGTRLEIKR
B2: 9A2-VR24.78 (antibody, V domains shown)
VH: EVQLLESGGGLVQPGGSLRLSCAASGFTFPWYRVHWVRQAPGKGLEWVSSIHTHRNYTYYADSVKGRFTISRDNSKNTLYLQMNSLRAEDTAVYYCARFYDSFFDIWGQGTMVTVSS
VL: B1 VL
B3: 9A2-VR24.91 (antibody, V domains shown)
VH: B2 VH with N56Q, Y57V
VL: B1 VL
B4: 9A2-VR39.103 (antibody, V domains shown)
VH: B1 VH with W31H, Y34W, I35V
VL: B1 VL
B5: 9A2-VR24.19 (antibody, V domains shown)
VH: B2 VH with H54Q, R55S, N56K, Y57W
VL: B1 VL
B6: 9A2-VR39.110 (antibody, V domains shown)
VH: B1 VH with Q30V, F32Y, Y34H
VL: B1 VL
B7: 9A2-VR24.97 (antibody, V domains shown)
VH: B2 VH with H52R, T53S, H54S, R55G, N56G, Y57F, T58P, A61S, D62L
VL: B1 VL
B8: 9A2-VR39.116 (antibody, V domains shown)
VH: B1 VH with Q30P, H33V, Y34M, I35V
VL: B1 VL
B9: 9A2-VR24.33 (antibody, V domains shown)
VH: B2 VH with H52R, T53S, H54S, R55G, N56G, Y57F, T58P, A61N, D62H, S63K
VL: B1 VL
B10: 9A2-VR24.07 (antibody, V domains shown)
VH: B2 VH with Y57S
VL: B1 VL
B11: 9A2-VR24.84 (antibody, V domains shown)
VH: B2 VH with N56P, Y57W
VL: B1 VL
B12: 9A2-VR39.109 (antibody, V domains shown)
VH: B1 VH with Q30M, F32Y, Y34H
VL: B1 VL
B13: 9A2-VR39.77 (antibody, V domains shown)
VH: EVQLLESGGGLVQPGGSLRLSCAASGFTFSHYHMLWVRQAPGKGLEWVSSINGRGRVTYYQWPMNKRFTISRDNSKNTLYLQMNSLRAEDTAVYYCARFYDSFFDIWGQGTMVTVSS
VL: B1 VL
B14: 9A2-VR39.112 (antibody, V domains shown)
VH: B1 VH with Q30P, W31Y, F32Y, Y34Q, I35V
VL: B1 VL
B15: 9A2-VR39.139 (antibody, V domains shown)
VH: B1 VH with G26P, F27R, T28W, F29E, Q30W, W31N, F32Y, Y34M, I35L
VL: B1 VL
B16: 9A2-VR24.24 (antibody, V domains shown)
VH: B2 VH with H52R, H54D, R55G, N56T, Y57W
VL: B1 VL
B17: 9A2-VR39.122 (antibody, V domains shown)
VH: B1 VH with G26A, F27G, T28F, Q30E, W31Y, F32Y, Y34M, I35L
VL: B1 VL
B18: 9A2-VR39.174 (antibody, V domains shown)
VH: B13 VH with Q61A, W62R, P63D, M64H, N65K
VL: B1 VL
B19: 9A2-VR39.148 (antibody, V domains shown)
VH: B13 VH with Y59H, Y60V, Q61A, W62Q, P63E, M64V, N65K, K66G
VL: B1 VL
B20: 9A2-VR24.10 (antibody, V domains shown)
VH: B2 VH with H54G, R55S, N56Q, Y57W
VL: B1 VL
B21: 9A2-VR24.81 (antibody, V domains shown)
VH: B2 VH
VL: B1 VL
B22: 9A2-VR39.93 (antibody, V domains shown)
VH: B13 VH with Q61N, W62P, P63A, M64W, N65K
VL: B1 VL
B23: 9A2-VR24.04 (antibody, V domains shown)
VH: B2 VH with N56H, Y57I
VL: B1 VL
B24: 9A2-VR39.105 (antibody, V domains shown)
VH: B1 VH with Q30P, W31Y, F32Y, Y34M
VL: B1 VL
B25: 9A2-VR24.27 (antibody, V domains shown)
VH: B2 VH with H52R, T53S, H54S, R55G, N56G, Y57F, T58P, A61H, D62Q, S63K
VL: B1 VL
B26: 9A2-VR39.46 (antibody, V domains shown)
VH: B1 VH with G26D, F27V, T28D, Q30G, F32Y, Y34M, I35L
VL: B1 VL
B27: 9A2-VR24.12 (antibody, V domains shown)
VH: B2 VH with R55Y, N56Q
VL: B1 VL
B28: 9A2-VR24.44 (antibody, V domains shown)
VH: B2 VH with H52R, T53S, H54S, R55G, N56G, Y57F, T58P, A61H, D62P
VL: B1 VL
B29: 9A2-VR24.30 (antibody, V domains shown)
VH: B2 VH with H52R, T53S, H54S, R55G, N56G, Y57F, T58P, A61N, D62R, S63R
VL: B1 VL
B30: 9A2-VR39.140 (antibody, V domains shown)
VH: B1 VH with G26A, F27Y, T28S, F29E, Q30M, F32Y, Y34M, I35L
VL: B1 VL
B31: 9A2-VR39.111 (antibody, V domains shown)
VH: B1 VH with Q30P, Y34F, I35V
VL: B1 VL
B32: 9A2-VR39.177 (antibody, V domains shown)
VH: B13 VH with Q61A, W62L, P63E, M64Y, N65K
VL: B1 VL
B33: 9A2-VR39.162 (antibody, V domains shown)
VH: B13 VH with T58P, Y59Q, Y60M, Q61A, W62Q, P63E, M64V, N65K, K66G
VL: B1 VL
B34: 9A2-VR24.87 (antibody, V domains shown)
VH: B2 VH with R55S, N56D, Y57W
VL: B1 VL
B35: 9A2-VR39.27 (antibody, V domains shown)
VH: B1 VH with G26R, F27T, T28S, Q30M, F32Y, Y34M, I35L
VL: B1 VL
B36: 9A2-VR24.76 (antibody, V domains shown)
VH: B2 VH with H52Q, R55G, N56V, Y57W
VL: B1 VL
B37: 9A2-VR24.82 (antibody, V domains shown)
VH: B2 VH with H52K, T53H, H54G, R55G, N56R
VL: B1 VL
B38: 9A2-VR24.93 (antibody, V domains shown)
VH: B2 VH with H52R, T53N, H54E, R55N, N56G, Y57W
VL: B1 VL
B39: 9A2-VR39.28 (antibody, V domains shown)
VH: B1 VH with G26R, F27G, T28A, F29P, Q30M, F32Y, Y34M, I35L
VL: B1 VL

What follows are binders tested against T1, human CD131 (assay: cell-based or functional assay).
B1 was tested, and the “IC50 GM-CSF, TF-1 proliferation” value was 2.29 nM.
For B2, the “IC50 GM-CSF, TF-1 proliferation” value was 0.65 nM.
With B3 the “IC50 GM-CSF, TF-1 proliferation” value was 0.5 nM.
In the case of B4, the “IC50 GM-CSF, TF-1 proliferation” value is reported as 5.14 nM.
B5 was tested, and the “IC50 GM-CSF, TF-1 proliferation” value was 0.98 nM.
B6 was tested, and the “IC50 GM-CSF, TF-1 proliferation” value was 0.28 nM.
For B7, the “IC50 GM-CSF, TF-1 proliferation” value was 0.16 nM.
B8 was tested, and the “IC50 GM-CSF, TF-1 proliferation” value was 7.93 nM.
With B9 the “IC50 GM-CSF, TF-1 proliferation” value was 0.34 nM.
With B10 the “IC50 GM-CSF, TF-1 proliferation” value was 1.17 nM.
For B11, the “IC50 GM-CSF, TF-1 proliferation” value was 0.21 nM.
In the case of B12, the “IC50 GM-CSF, TF-1 proliferation” value is reported as 0.24 nM.
For B13, the “IC50 GM-CSF, TF-1 proliferation” value was 2.03 nM.
B14 was tested, and the “IC50 GM-CSF, TF-1 proliferation” value was 1 nM.
For B15, the “IC50 GM-CSF, TF-1 proliferation” value was 21.5 nM.
In the case of B16, the “IC50 GM-CSF, TF-1 proliferation” value is reported as 1.09 nM.
B17 was tested, and the “IC50 GM-CSF, TF-1 proliferation” value was 15 nM.
For B18, the “IC50 GM-CSF, TF-1 proliferation” value was 0.64 nM.
In the case of B19, the “IC50 GM-CSF, TF-1 proliferation” value is reported as 1.12 nM.
For B20, the “IC50 GM-CSF, TF-1 proliferation” value was 9.52 nM.
For B21, the “IC50 GM-CSF, TF-1 proliferation” value was 0.48 nM.
B22 was tested, and the “IC50 GM-CSF, TF-1 proliferation” value was 0.28 nM.
In the case of B23, the “IC50 GM-CSF, TF-1 proliferation” value is reported as 0.7 nM.
With B24 the “IC50 GM-CSF, TF-1 proliferation” value was 0.53 nM.
In the case of B25, the “IC50 GM-CSF, TF-1 proliferation” value is reported as 0.25 nM.
B26 was tested, and the “IC50 GM-CSF, TF-1 proliferation” value was 3.34 nM.
B27 was tested, and the “IC50 GM-CSF, TF-1 proliferation” value was 0.93 nM.
With B28 the “IC50 GM-CSF, TF-1 proliferation” value was 0.4 nM.
With B29 the “IC50 GM-CSF, TF-1 proliferation” value was 0.25 nM.
For B30, the “IC50 GM-CSF, TF-1 proliferation” value was 42.5 nM.
In the case of B31, the “IC50 GM-CSF, TF-1 proliferation” value is reported as 0.99 nM.
With B32 the “IC50 GM-CSF, TF-1 proliferation” value was 0.52 nM.
In the case of B33, the “IC50 GM-CSF, TF-1 proliferation” value is reported as 3.6 nM.
With B34 the “IC50 GM-CSF, TF-1 proliferation” value was 2.37 nM.
In the case of B35, the “IC50 GM-CSF, TF-1 proliferation” value is reported as 17.9 nM.
For B36, the “IC50 GM-CSF, TF-1 proliferation” value was 12.4 nM.
With B37 the “IC50 GM-CSF, TF-1 proliferation” value was 3.99 nM.
With B38 the “IC50 GM-CSF, TF-1 proliferation” value was 0.92 nM.
B39 was tested, and the “IC50 GM-CSF, TF-1 proliferation” value was 57.2 nM.
